Laboratory results taken from US20240117018A1.

How the values were obtained:
Test in all cases: cell-based or functional assay
[1] = molecular target: HIV-1 Env of pseudovirus 231966.c02 (HIV-1)
[2] = molecular target: HIV-1 Env of pseudovirus 0815.v3.c3 (HIV-1)
[3] = molecular target: HIV-1 Env of pseudovirus P1981_C5_3 (HIV-1)
[4] = molecular target: HIV-1 Env of pseudovirus R2184.c04 (HIV-1)
[5] = molecular target: HIV-1 Env of pseudovirus 191955_A11 (HIV-1)
[6] = molecular target: HIV-1 Env of pseudovirus C3347.c11 (HIV-1)
[7] = molecular target: HIV-1 Env of pseudovirus X1193_c1 (HIV-1)
[8] = molecular target: HIV-1 Env of pseudovirus 235-47 (HIV-1)
[9] = molecular target: HIV-1 Env of pseudovirus 89-F1_2_25 (HIV-1)
[10] = molecular target: HIV-1 Env of pseudovirus T257-31 (HIV-1)
[11] = molecular target: HIV-1 Env of pseudovirus 263-8 (HIV-1)
[12] = molecular target: HIV-1 Env of pseudovirus 928-28 (HIV-1)
[13] = molecular target: HIV-1 Env of pseudovirus BJOX028000.10.3 (HIV-1)
[14] = molecular target: HIV-1 Env of pseudovirus X2088_c9 (HIV-1)
[15] = molecular target: HIV-1 Env of pseudovirus X1632_S2_B10 (HIV-1)
[16] = molecular target: HIV-1 Env of pseudovirus X2131_C1_B5 (HIV-1)
[17] = molecular target: HIV-1 Env of pseudovirus C1080.c03 (HIV-1)
[18] = molecular target: HIV-1 Env of pseudovirus BJOX010000.06.2 (HIV-1)
[19] = molecular target: HIV-1 Env of pseudovirus 6480.v4.c25 (HIV-1)
[20] = molecular target: HIV-1 Env of pseudovirus 6540.v4.c1 (HIV-1)
[21] = molecular target: HIV-1 Env of pseudovirus BJOX025000.01.1 (HIV-1)
[22] = molecular target: HIV-1 Env of pseudovirus P0402_c2_11 (HIV-1)
[23] = molecular target: HIV-1 Env of pseudovirus R3265.c06 (HIV-1)
[24] = molecular target: HIV-1 Env of pseudovirus 6041.v3.c23 (HIV-1)
[25] = molecular target: HIV-1 Env of pseudovirus C4118.c09 (HIV-1)
[26] = molecular target: HIV-1 Env of pseudovirus 211-9 (HIV-1)
[27] = molecular target: HIV-1 Env of pseudovirus R1166.c01 (HIV-1)
[28] = molecular target: HIV-1 Env of pseudovirus BJOX015000.11.5 (HIV-1)
[29] = molecular target: HIV-1 Env of pseudovirus BJOX009000.02.4 (HIV-1)
[30] = molecular target: HIV-1 Env of pseudovirus 3103.v3.c10 (HIV-1)
[31] = molecular target: HIV-1 Env of pseudovirus 6811.v7.c18 (HIV-1)
[32] = molecular target: HIV-1 Env of pseudovirus 191084 B7-19 (HIV-1)
[33] = molecular target: HIV-1 Env of pseudovirus 3817.v2.c59 (HIV-1)
[34] = molecular target: HIV-1 Env of pseudovirus T255-34 (HIV-1)
[35] = molecular target: HIV-1 Env of pseudovirus 3301.v1.c24 (HIV-1)
[36] = molecular target: HIV-1 Env of pseudovirus T251-18 (HIV-1)

With N49P9 (antibody) the neutralization IC50 [1] was 0.074 µg/mL, the neutralization IC80 [1] was 0.244 µg/mL and the neutralization MPI [1] was 100. It also gave a neutralization IC50 [2] of 0.02 µg/mL, a neutralization IC80 [2] of 0.057 µg/mL and a neutralization MPI [2] of 100. The neutralization IC50 [3] was 0.308 µg/mL, the neutralization IC80 [3] was 0.701 µg/mL and the neutralization MPI [3] was 100. For the same substance, the neutralization IC50 [4] was 0.015 µg/mL, the neutralization IC80 [4] was 0.034 µg/mL and the neutralization MPI [4] was 100. The neutralization IC50 [5] was over 50 µg/mL, the neutralization IC80 [5] was over 50 µg/mL and the neutralization MPI [5] was 35. It also gave a neutralization IC50 [6] of 0.023 µg/mL, a neutralization IC80 [6] of 0.065 µg/mL and a neutralization MPI [6] of 100. The neutralization IC50 [7] was 0.025 µg/mL, the neutralization IC80 [7] was 0.081 µg/mL and the neutralization MPI [7] was 100. The neutralization IC50 [8] was 0.072 µg/mL, the neutralization IC80 [8] was 0.271 µg/mL and the neutralization MPI [8] was 98. For the same substance, the neutralization IC50 [9] was over 50 µg/mL, the neutralization IC80 [9] was over 50 µg/mL and the neutralization MPI [9] was 23. It also gave a neutralization IC50 [10] of 0.216 µg/mL, a neutralization IC80 [10] of 0.821 µg/mL and a neutralization MPI [10] of 100. The neutralization IC50 [11] was 0.032 µg/mL, the neutralization IC80 [11] was 0.161 µg/mL and the neutralization MPI [11] was 100. For the same substance, the neutralization IC50 [12] was 0.094 µg/mL, the neutralization IC80 [12] was 0.339 µg/mL and the neutralization MPI [12] was 100. It also gave a neutralization IC50 [13] of 0.031 µg/mL, a neutralization IC80 [13] of 0.134 µg/mL and a neutralization MPI [13] of 100. It also gave a neutralization IC50 [14] of 0.07 µg/mL, a neutralization IC80 [14] of 0.252 µg/mL and a neutralization MPI [14] of 100. It also gave a neutralization IC50 [15] of 46.7 µg/mL, a neutralization IC80 [15] of over 50 µg/mL and a neutralization MPI [15] of 51. It also gave a neutralization IC50 [16] of 0.082 µg/mL, a neutralization IC80 [16] of 0.274 µg/mL and a neutralization MPI [16] of 100. The neutralization IC50 [17] was 0.119 µg/mL, the neutralization IC80 [17] was 0.575 µg/mL and the neutralization MPI [17] was 100. It also gave a neutralization IC50 [18] of 0.482 µg/mL, a neutralization IC80 [18] of 2.34 µg/mL and a neutralization MPI [18] of 100. The neutralization IC50 [19] was 0.017 µg/mL, the neutralization IC80 [19] was 0.047 µg/mL and the neutralization MPI [19] was 100. It also gave a neutralization IC50 [20] of over 50 µg/mL, a neutralization IC80 [20] of over 50 µg/mL and a neutralization MPI [20] of 49. For the same substance, the neutralization IC50 [21] was 0.055 µg/mL, the neutralization IC80 [21] was 0.252 µg/mL and the neutralization MPI [21] was 100. For the same substance, the neutralization IC50 [22] was 0.028 µg/mL, the neutralization IC80 [22] was 0.085 µg/mL and the neutralization MPI [22] was 100. It also gave a neutralization IC50 [23] of 0.135 µg/mL, a neutralization IC80 [23] of 0.812 µg/mL and a neutralization MPI [23] of 100. It also gave a neutralization IC50 [24] of 0.089 µg/mL, a neutralization IC80 [24] of 0.777 µg/mL and a neutralization MPI [24] of 95. For the same substance, the neutralization IC50 [25] was 0.072 µg/mL, the neutralization IC80 [25] was 0.2 µg/mL and the neutralization MPI [25] was 100. The neutralization IC50 [26] was 0.136 µg/mL, the neutralization IC80 [26] was 0.485 µg/mL and the neutralization MPI [26] was 100. The neutralization IC50 [27] was 0.064 µg/mL, the neutralization IC80 [27] was 0.223 µg/mL and the neutralization MPI [27] was 100. The neutralization IC50 [28] was 0.089 µg/mL, the neutralization IC80 [28] was 0.375 µg/mL and the neutralization MPI [28] was 100. It also gave a neutralization IC50 [29] of 0.727 µg/mL, a neutralization IC80 [29] of 3.29 µg/mL and a neutralization MPI [29] of 100. The neutralization IC50 [30] was 17.6 µg/mL, the neutralization IC80 [30] was over 50 µg/mL and the neutralization MPI [30] was 55. For the same substance, the neutralization IC50 [31] was 0.249 µg/mL, the neutralization IC80 [31] was 1.2 µg/mL and the neutralization MPI [31] was 99. The neutralization IC50 [32] was 0.042 µg/mL, the neutralization IC80 [32] was 0.129 µg/mL and the neutralization MPI [32] was 100. The neutralization IC50 [33] was 1.09 µg/mL, the neutralization IC80 [33] was 5.86 µg/mL and the neutralization MPI [33] was 100. The neutralization IC50 [34] was 0.051 µg/mL, the neutralization IC80 [34] was 0.247 µg/mL and the neutralization MPI [34] was 100. The neutralization IC50 [35] was 0.072 µg/mL, the neutralization MPI [35] was 100 and the neutralization IC50 [36] was 0.147 µg/mL. The neutralization IC80 [36] was 0.517 µg/mL and the neutralization MPI [36] was 100.
